± gives the uncertainty stated by the source.
Assay: protein stability index of a GFP-peptide fusion (yeast GPS) (PSI 1-4); higher = more stable; sorted into four equal gates, so the index is relative within each strain
Outline: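 Mid-log yeast cultures in leucine-free medium, carrying a pooled plasmid library, were sorted into four equal gates by their GFP/Cherry fluorescence ratio. Each plasmid expressed Cherry along with GFP fused upstream of a tiled 17-residue yeast protein peptide. Plasmids recovered from each gate were PCR-amplified and Illumina-sequenced, with reads assigned to strains by barcodes. The protein stability index was obtained by summing each gate's read frequency weighted by its gate number.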

ASSAVMNRRKIAMPKRR [YLR335W/NUP2]
protein stability index (doa10∆): 1.19 ± 0.074 | protein stability index (pdr5∆): 1.3 ± 0.071 | protein stability index (san1∆): 1.23 ± 0.2 | protein stability index (ubr1∆): 1.16 ± 0.11

IADLDTEAEETSIHSTI [RRP43]
protein stability index (doa10∆): 3.76 ± 0.18 | protein stability index (pdr5∆): 2.56 ± 0.17 | protein stability index (san1∆): 3.54 ± 0.11 | protein stability index (ubr1∆): 3.38 ± 0.15

DMENMADEQKRSTDVWY [ARP7]
protein stability index (doa10∆): 2.35 ± 0.05 | protein stability index (pdr5∆): 2.31 ± 0.04 | protein stability index (san1∆): 2.62 ± 0.053 | protein stability index (ubr1∆): 2.55 ± 0.044

SHNWAAKAKRRHTTGTG [RPL37B]
protein stability index (doa10∆): 3.29 ± 0.1 | protein stability index (pdr5∆): 2.92 ± 0.058 | protein stability index (san1∆): 3.33 ± 0.071 | protein stability index (ubr1∆): 3.35 ± 0.056

PNLLFSMCGFEVRILPR [PRP8]
protein stability index (doa10∆): 2.41 ± 0.051 | protein stability index (pdr5∆): 1.9 ± 0.047 | protein stability index (san1∆): 2.25 ± 0.055 | protein stability index (ubr1∆): 2.27 ± 0.046

NSIESKNLSLQTGTKPV [COR1]
protein stability index (doa10∆): 2.72 ± 0.06 | protein stability index (pdr5∆): 2.84 ± 0.053 | protein stability index (san1∆): 2.95 ± 0.045 | protein stability index (ubr1∆): 2.85 ± 0.042

VVILARAKALGIKVTNP [RPL32]
protein stability index (doa10∆): 3.16 ± 0.14 | protein stability index (pdr5∆): 3.2 ± 0.16 | protein stability index (san1∆): 2.55 ± 0.12 | protein stability index (ubr1∆): 2.93 ± 0.076

YKKIPLLGPTLEDHTPP [QCR10]
protein stability index (doa10∆): 2.34 ± 0.05 | protein stability index (pdr5∆): 2.59 ± 0.057 | protein stability index (san1∆): 2.42 ± 0.083 | protein stability index (ubr1∆): 2.76 ± 0.029

LYVDSESTSSTEEVEAL [MTW1]
protein stability index (doa10∆): 2.92 ± 0.11 | protein stability index (pdr5∆): 3.76 ± 0.15 | protein stability index (san1∆): 3.14 ± 0.19 | protein stability index (ubr1∆): 3.24 ± 0.11

AASVIGMLVALGRLSVR [RPC82]
protein stability index (pdr5∆): 1.32 ± 0.07 | protein stability index (san1∆): 1.11 ± 0.23 | protein stability index (ubr1∆): 1.24 ± 0.097

TQTYMQMIELNRQICLV [GRR1]
protein stability index (doa10∆): 2.35 ± 0.13 | protein stability index (pdr5∆): 1.44 ± 0.073 | protein stability index (san1∆): 1.35 ± 0.19 | protein stability index (ubr1∆): 1.25 ± 0.047

TPLFPIDRNSTILYLNV [IRR1]
protein stability index (doa10∆): 2.71 ± 0.083 | protein stability index (pdr5∆): 1.87 ± 0.072 | protein stability index (san1∆): 2.93 ± 0.092 | protein stability index (ubr1∆): 2.69 ± 0.098

PAELDLRGSLLSRKPSD [RPC82]
protein stability index (doa10∆): 2.9 ± 0.13 | protein stability index (pdr5∆): 3.38 ± 0.12 | protein stability index (san1∆): 3.11 ± 0.099 | protein stability index (ubr1∆): 3.19 ± 0.078

EIEQNTELLDEFIAAVN [RPN10]
protein stability index (doa10∆): 3.36 ± 0.082 | protein stability index (pdr5∆): 3.32 ± 0.11 | protein stability index (san1∆): 2.79 ± 0.099 | protein stability index (ubr1∆): 3.16 ± 0.082

DYVVAPGVNREINSEMC [GRR1]
protein stability index (pdr5∆): 3.18 ± 0.2 | protein stability index (san1∆): 3.32 ± 0.082 | protein stability index (ubr1∆): 3.13 ± 0.064

VDIDDPDMMVDSFTMPN [SNF2]
protein stability index (doa10∆): 3.27 ± 0.11 | protein stability index (pdr5∆): 2.86 ± 0.094 | protein stability index (san1∆): 2.71 ± 0.085 | protein stability index (ubr1∆): 3.15 ± 0.089

VLLVEKYGAEYDLVDNK [NAS6]
protein stability index (doa10∆): 1.9 ± 0.22 | protein stability index (san1∆): 3 ± 0.22 | protein stability index (ubr1∆): 3 ± 0.19

EYLFKPQLISDKFSPED [ARP7]
protein stability index (doa10∆): 2.38 ± 0.053 | protein stability index (pdr5∆): 2.46 ± 0.042 | protein stability index (san1∆): 2.32 ± 0.056 | protein stability index (ubr1∆): 2.17 ± 0.041

KSMGRKCFDDIEPHIFD [YCG1]
protein stability index (doa10∆): 3.15 ± 0.075 | protein stability index (pdr5∆): 3.07 ± 0.084 | protein stability index (san1∆): 3.29 ± 0.046 | protein stability index (ubr1∆): 3.32 ± 0.048

KHWGGGILGNKAQAKMD [RPL8A]
protein stability index (doa10∆): 3.39 ± 0.13 | protein stability index (pdr5∆): 3.47 ± 0.11 | protein stability index (san1∆): 3.53 ± 0.066 | protein stability index (ubr1∆): 3.35 ± 0.087

EDLKNFIFQIIEITNSN [SRB8]
protein stability index (doa10∆): 1.96 ± 0.075 | protein stability index (pdr5∆): 2.1 ± 0.056 | protein stability index (san1∆): 2.23 ± 0.086 | protein stability index (ubr1∆): 1.79 ± 0.05

INKYESSPSHIELVVTE [RPL17A]
protein stability index (doa10∆): 2.08 ± 0.045 | protein stability index (pdr5∆): 2.56 ± 0.051 | protein stability index (san1∆): 2.05 ± 0.067 | protein stability index (ubr1∆): 2.17 ± 0.036

TRIQYVDFACCTNLTNR [GRR1]
protein stability index (doa10∆): 2.82 ± 0.057 | protein stability index (pdr5∆): 2.6 ± 0.069 | protein stability index (san1∆): 2.58 ± 0.1 | protein stability index (ubr1∆): 2.36 ± 0.049

AKTFGASVRIFLYPSNI [RPL33A]
protein stability index (doa10∆): 2.38 ± 0.057 | protein stability index (pdr5∆): 2.65 ± 0.056 | protein stability index (san1∆): 2.5 ± 0.066 | protein stability index (ubr1∆): 2.59 ± 0.054

HGLILELQKIWQIEEAG [SRB5]
protein stability index (doa10∆): 2.86 ± 0.094 | protein stability index (pdr5∆): 2.93 ± 0.091 | protein stability index (san1∆): 3.19 ± 0.048 | protein stability index (ubr1∆): 3.14 ± 0.043

DTSGLKISNSEFFNPEI [SIN4]
protein stability index (doa10∆): 3.21 ± 0.096 | protein stability index (pdr5∆): 3.44 ± 0.12 | protein stability index (san1∆): 3.1 ± 0.058 | protein stability index (ubr1∆): 3.29 ± 0.074

TNVRLYSLLLASKGIDR [ECM29]
protein stability index (doa10∆): 2.13 ± 0.048 | protein stability index (pdr5∆): 2.79 ± 0.087 | protein stability index (san1∆): 3.48 ± 0.088 | protein stability index (ubr1∆): 3.33 ± 0.069

QWSRIVLQNVFKLVSTP [MED1]
protein stability index (doa10∆): 1.4 ± 0.039 | protein stability index (pdr5∆): 1.24 ± 0.043 | protein stability index (san1∆): 1.23 ± 0.08 | protein stability index (ubr1∆): 1.34 ± 0.038

VTLDITTLTIMRILPRE [RPT4]
protein stability index (doa10∆): 2.53 ± 0.057 | protein stability index (pdr5∆): 2.25 ± 0.061 | protein stability index (san1∆): 2.17 ± 0.081 | protein stability index (ubr1∆): 2.45 ± 0.038

ADKRGVLTGGYLDQHKR [SMC3]
protein stability index (doa10∆): 2.46 ± 0.11 | protein stability index (pdr5∆): 2.54 ± 0.1 | protein stability index (san1∆): 2.72 ± 0.074 | protein stability index (ubr1∆): 2.94 ± 0.052

KLKHMVLDKMHARARGP [RET1]
protein stability index (doa10∆): 2.69 ± 0.094 | protein stability index (pdr5∆): 2.84 ± 0.084 | protein stability index (san1∆): 2.47 ± 0.067 | protein stability index (ubr1∆): 2.65 ± 0.06

KQRFQGCNNLIKNISNR [ARP9]
protein stability index (doa10∆): 2.89 ± 0.07 | protein stability index (pdr5∆): 2.88 ± 0.048 | protein stability index (san1∆): 3.26 ± 0.063 | protein stability index (ubr1∆): 3.03 ± 0.048

HHFTCEITGTSCLTFFQ [ITC1]
protein stability index (doa10∆): 1.9 ± 0.05 | protein stability index (pdr5∆): 2.2 ± 0.057 | protein stability index (san1∆): 2.04 ± 0.078 | protein stability index (ubr1∆): 2.07 ± 0.047

KIFIKDPKFVNSLLAKL [YML103C/NUP188]
protein stability index (doa10∆): 2.25 ± 0.14 | protein stability index (pdr5∆): 2.25 ± 0.063 | protein stability index (san1∆): 1.72 ± 0.1 | protein stability index (ubr1∆): 2.39 ± 0.068

LHIHGSSNPLGITGNLD [COB]
protein stability index (doa10∆): 2.92 ± 0.087 | protein stability index (pdr5∆): 2.91 ± 0.078 | protein stability index (san1∆): 2.7 ± 0.05 | protein stability index (ubr1∆): 2.66 ± 0.054

MEIVANAKESNYTDLIW [MED1]
protein stability index (doa10∆): 3.27 ± 0.094 | protein stability index (pdr5∆): 3.41 ± 0.16 | protein stability index (san1∆): 3.44 ± 0.078 | protein stability index (ubr1∆): 2.83 ± 0.081

NIKKKDTKDALSTRELA [RPC53]
protein stability index (ubr1∆): 2.7 ± 0.29

MVLVQDLLHPTAASEAR [RPS27A]
protein stability index (doa10∆): 2.45 ± 0.19 | protein stability index (pdr5∆): 3.37 ± 0.089 | protein stability index (san1∆): 3.17 ± 0.19 | protein stability index (ubr1∆): 3.17 ± 0.11

VHESLVTQSNILSQQFD [SRB8]
protein stability index (doa10∆): 2.71 ± 0.07 | protein stability index (pdr5∆): 3.09 ± 0.071 | protein stability index (san1∆): 2.78 ± 0.054 | protein stability index (ubr1∆): 3.02 ± 0.052

LHGNAKKAAEEAGVTDV [FAS2]
protein stability index (doa10∆): 3.42 ± 0.12 | protein stability index (pdr5∆): 3.18 ± 0.12 | protein stability index (san1∆): 3.13 ± 0.12 | protein stability index (ubr1∆): 3.34 ± 0.15

RGKKGLKKKVVDPFTRK [RPS1B]
protein stability index (doa10∆): 3.73 ± 0.15 | protein stability index (pdr5∆): 3.34 ± 0.082 | protein stability index (san1∆): 3.35 ± 0.074 | protein stability index (ubr1∆): 3.27 ± 0.088

TTDNNNSGNSNSNSNQQ [RPT1]
protein stability index (doa10∆): 3.3 ± 0.12 | protein stability index (pdr5∆): 2.93 ± 0.14 | protein stability index (san1∆): 2.59 ± 0.23 | protein stability index (ubr1∆): 3.36 ± 0.2

DIPLAKALDNACGAFIN [CDC53]
protein stability index (doa10∆): 2.63 ± 0.091 | protein stability index (pdr5∆): 3.1 ± 0.067 | protein stability index (san1∆): 2.8 ± 0.078 | protein stability index (ubr1∆): 2.87 ± 0.072

IINFGEIEQNTELLDEF [RPN10]
protein stability index (doa10∆): 3.25 ± 0.1 | protein stability index (pdr5∆): 3.42 ± 0.083 | protein stability index (san1∆): 3.23 ± 0.07 | protein stability index (ubr1∆): 3.17 ± 0.072

LHVVSKSSIEKDPSPEI [SIN4]
protein stability index (doa10∆): 2.91 ± 0.054 | protein stability index (pdr5∆): 3.03 ± 0.066 | protein stability index (san1∆): 3.13 ± 0.052 | protein stability index (ubr1∆): 3.14 ± 0.051

LIRLQMEKLDAKLNHLK [SWI3]
protein stability index (doa10∆): 3.06 ± 0.17 | protein stability index (pdr5∆): 3.04 ± 0.15 | protein stability index (san1∆): 2.85 ± 0.15 | protein stability index (ubr1∆): 3.1 ± 0.2

SIDSTSRIELELKNIGL [ECM29]
protein stability index (doa10∆): 2.59 ± 0.052 | protein stability index (pdr5∆): 2.75 ± 0.045 | protein stability index (san1∆): 2.74 ± 0.042 | protein stability index (ubr1∆): 2.44 ± 0.028

YGVSFFTIQSFVSSLSN [BRR2]
protein stability index (doa10∆): 1.47 ± 0.052 | protein stability index (pdr5∆): 1.32 ± 0.058 | protein stability index (san1∆): 1.18 ± 0.087 | protein stability index (ubr1∆): 1.42 ± 0.054

QVIKNEVCAKMPNIELY [SSN2]
protein stability index (doa10∆): 2.83 ± 0.076 | protein stability index (pdr5∆): 2.81 ± 0.058 | protein stability index (san1∆): 2.7 ± 0.074 | protein stability index (ubr1∆): 2.35 ± 0.06

SGHFSTDSRTGQSTILV [CDC53]
protein stability index (doa10∆): 2.83 ± 0.047 | protein stability index (pdr5∆): 2.8 ± 0.052 | protein stability index (san1∆): 3.05 ± 0.038 | protein stability index (ubr1∆): 3.11 ± 0.042

DDNEMTRDDLLTILMRS [RRI2]
protein stability index (doa10∆): 2.44 ± 0.2 | protein stability index (pdr5∆): 2.66 ± 0.19

PYSKNAVEQLAGCKIDN [YDL088C/ASM4]
protein stability index (doa10∆): 2.58 ± 0.089 | protein stability index (pdr5∆): 2.6 ± 0.089 | protein stability index (san1∆): 2.41 ± 0.092 | protein stability index (ubr1∆): 2.56 ± 0.047

FGDTKSESKQLGNTSSV [SWI3]
protein stability index (doa10∆): 3.54 ± 0.12 | protein stability index (pdr5∆): 3.16 ± 0.081 | protein stability index (san1∆): 3.13 ± 0.066 | protein stability index (ubr1∆): 3.35 ± 0.05

From the supplement of paper PMC9732359
